# Assay: soluble on expression in E. coli; label from the status in PepcDB or PDB records
row,Sequence,soluble on expression in E. coli
1,MSEGSGDQSQQRPWASPRQQPIKGIVQPRVLPPFGKPTRHTNKLDYIMTTVLKEAGKHKHVWPFQKPVDAVALCIPLYHERVARPMDLKTIENRLKSTYYTCAQECIDDIETVFQNCYTFNGKEDDVTIMAQNVHEVIKKSLEQAPREEHDMDVYWGKNKKKPAKSDGGSKSSSSKKNDARGPSEAPSEAGSEVSSVTTASAAAPTVSESASVAAKPERKVAGKKTGKRKAESEDDEKPEPLRAKREVAVVKKEVHQPLLPSMKPCLKLLNDFSTKKYQEFAWPFNEPVDAEQLGLHDYHKIIKEPMDLKSMKAKMESGAYKEPSDFEHDVRLMLRNCFLYNPVGDPVHSFGLRFQEVFDRRWAELGDSSSRASSVAPQSAPIAPTPKVAKSSAPKEPKESRKEHKKETTFEASGAKSEDLMQINNALSMIREREEKLKAELAAAQAIKDKLTSVKNRREDNPNEPFPEKLINETRALCTTQVGQNASSSSASSAALRNGRSKKAASARLYGYEFDSDDEDNKMALTYEEKRNLSNLINNLPNNQLNTIISIIQRRERSALMQQQLDDSEVELDFESLGDMCLREMGAFIKTIPTLNGNGDDEKPKTSSNPTSSGATGSKGSSSLESKNGKKKKNFNMSESSDDETSNSRKRRKRESSESQSSSSSDDDSDDEDRPSIPRKSGQPPSTSREWNQSSAPPPRMGGMGGQPPMSRVPASSSTSVSAIGKNNAAASSNSYRYRCFFVRKLNLKISNKKKWKSKKNSTNLVFRSSKTCTSTSTNIIKTSGSTETTVKTKENGRNQQRRLRLDHQRKANPGMVKTSRPGFRGCGWRQSEPAKKKTKAVSRCQTKWK,not soluble
2,MKKFAAVIAVMALCSAPVMAAEQGGFSGPSATQSQAGGFQGPNGSVTTVESAKSLRDDTWVTLRGNIVERISDDLYVFKDASGTINVDIDHKRWNGVTVTPKDTVEIQGEVDKDWNSVEIDVKQIRKVNP,soluble
3,MKTIEVDDELYSYIASHTKHIGESRSDILRRMLKFSAASQKPVKTIKDKVRAMRELLLSDEYAEQKRAVNRFMLLLSTLYSLDAQAFAEATESLHGRTRVYFAADEQTLLKNGNQTKPKHVPGTPYWVITNTNTGRKCSMIEHIMQSMQFPAELIEKVCGTI,soluble
4,MEGFVLAGTSSGVGKTVATLATLTALEDAGYQPQPAKAGPDFIDPSHHEALVDTPSRTLDPWLAGEDGMRRTYWRGTGDICVVEGVMGLYDGTKTSTAAVAEGLDLPVVLVVDAKAGMESVAATALGFAQYADRIGVDIEVAGILAQRAHGGRHADGIRDALPEDLTYFGRIPPMSDLEIPDRHLGLHMGSEAGLDRDALSTAAETIDIERLVETARAPPEVATTERNTGDSPADRRVAVAQDSAFCFIYPSVLERLRSEASVEPFSPVAGDSVPDADAIYLPGGYPELHGESLETGGTLDEIAVRAADGVPVYGECGGLMALSESLTTTDGDTYEMAGVLPADIEMQDRYQALDHVELEARADTVAATSGAHRRGHEFHYSAATLGSDASFAFDMVRGDGIDGEHDGLTEYSTIGTYCHCHGESGAFDRLLAVPSKDILEHHHHHH,not soluble
5,MSQSASQDLSDFLGDDRFATVMADPPWRFTNRTGKVAPEHKRLARYPTMTLEDICALPVADYLQDRAHCYLWVPNALLPEGLQVLSAWGFEYKSNIVWHKVRKDGGSDGRGVGFYFRNVTELLLFGTKGKNARTLAPGRRQVNMMQTRKREHSRKPDEQYELIESCSWGPYLEMFGRGVRDGWTVWGNQADADYKPSWKTYSYNSGVAAELEHHHHHH,soluble
6,MENSNENDIVLTWWDWGHFVTYYARRSPVAQGSPNSGVAGYYLGLVDNGWAQSLGVDYVIVSLYDILKFEAIVDTAKLSRKWENISRADYGVDFLKLTESTGSILRFDSQYSTLIVKEGNIRVILSGKVVYPREAIIESNGRIKNLKYPARSGVYVYVNLDYGYAILEHHHHHH,not soluble
7,MGLDDALIFTRVVEYHSFTQAAQSLGMQKSTVSRRIALLEERLGVRLLNRTTRKLRLTEVGQAYYERCRQIMHDFAEAEQAVMQLQQAPSGLLRITSPIEFGQMFLASLLGDFMRQYPQITAEVELASRSVDPLQEGVDIVIMVGQPEDSTLVARRLLSTSRWLCASPDYLAAHGTPTSVAELAGHRAVLLSTDSQRYWPLSGDSLPCQRVLSCNNITFAREAVVAGAGIAALPALICAESVHSGRLVRLLADVPLPVGELYAVYPSRRFQAMKVKAFLDFLISRLPADTGRLLEPEAARLITSRP,not soluble
8,DHYACVSSGGQCLYSACPIFTKIQGTCYRGKAKCCK,soluble
9,QQLSMELESARAFNASVLANVAEGILVVDEAGNISFANPAICQLLNASVDQLRGTQVLDYVIEPQVSSWLESGFYQHYRKADTYRVHDAILRTAQGSQLPVALSCAALPAEQKAMVLTVLDMS,not soluble
10,MSLSVKRVLRNTIRKEKEENRVTEPLTETPELSAKYAWFFDLDGTLAEIKPHPDQVVVPDTILQGLQLLATASDGALALISGRSMVELDALAKPYRFPLAGVHGAERRDINGKTHIVHLPDAIARDISVQLHTVIAQYPGAELEAKGMAFALHYRQAPQHEDALMTLAQRITQIWPQMALQQGKCVVEIKPKGTSKGEAIAAFMQEAPFIGRTPVFLGDDLTDESGFAVVNRLGGMSVKIGTGATQASWRLAGVPDVWSWLEMITTALQQKRENNRSDDYESFSRSIEGHHHHHH,soluble
11,MAGDPMNDVSKASLPKAIFLMGPTASGKTALAIELRKVLPVELISVDSALIYRGMDIGTAKPNADELKAAPHRLLDIRDPSQAYSAADFRRDALAQMAEITAAGRIPLLVGGTMLYFKALLEGLSPLPSADPEVRSRIEQQAAELGWEALHQQLQEIDPVAAARIHPNDPQRLSRALEVFFISGKTLTELTQTSGDALPYQVHQFAIAPASRELLHQRIELRFHQMLASGFEAEVRALFARGDLHTDLPSIRCVGYRQMWSYIEGEISYDEMVYRGVCATRQLAKRQMTWLRGWEGVRWLDSENPDRARKEVLQVVGAIADLEHHHHHH,soluble
12,MARRQTSSNGAGETRENLLRLAARIFSAQGYSGTTMRSIAQQAGIETASIYYHFPSKEDLVDEVMEIGATAIIQHMTERIEALGDGATAEERFRAAVLGQMAGMVKHGEYTLASSSLIEQLPEKVRERQSKRRESYQKLWAGLLEDLRAEGRLRSDVDLHLARMFILGSVQSIRYWFNPRKGSLEKVAAQLCDLFFEGVGQRG,soluble
13,GMEQQHPTIHTLKIETEFFKAVKERRKTFEIRKNDRNFQVGDILILEEYMNGMYLDDECEAEVIYITDYAQREGYVVLGIELH,soluble
14,MKRTTLVMLLLTLCGFSSASFALSESEAEDLADLTAVFVYLKNDCGYQELPNNEIKRAIVYFAQQNRWDLHNYDSFNMKALGEDSYRDLRGIALPTPVKCKSLARDSLSLLAYAN,not soluble
15,MQNSTTEFLKPRQIDVNTFSATRAKVSMQPFERGFGHTLGNALRRILLSSMNGFAPTEVAIAGVLHEYSTVDGIQEDVVDILLNIKGIVFKLHGRSQVQLVLKKSGSGVVSAGDIELPHDVEILNPGHVICHLADNGQIEMEIKVEQGRGYQSVSGRQVVRDENRQIGAIQLDASFSPISRVSFEVEPARVEQRTDLDKLVLDIETDGSIDPEEAVRSAARILIDQMSIFADLQGTPVEEVEEKAPPIDPVLLRPVDDLELTVRSANCLKAEDIYYIGDLIQRTETELLKTPNLGRKSLNEIKEVLASKGLTLGSKLEAWPPVGLEKP,soluble
16,MNDFLNFTQQKREEPQQLVLIKYPGIVKNVDKALQTMGGLQLISQSHFNNHSLELSHTPDNPYTSRIMAERKPQDNVSSGTLHLVMKVRRKKIDPTKIKTSFLGLVNTVYTFDVMCDFQYLPLKKRVGCDTFEDLIPKLIPTDIASALSWWDASESVATPLFLPPYQFSRYLTPSTKILGRETDHTEKTKNAQKKGYGQNLRVERKALSVTVNAKEEFPLEPSQEAVDEAMFRCKHDEPHRLLRELFDERPMWTRMGLLYRTRIDDSLLRSILQKYAFYILSGPWGRLWCKFGYDPRTDRNGGLYQTIMVSFRQHGSIPERQRLKVSSDRAQTINHTADVSEPVTYMYEPGKLPRIRQMWYCVMDVRLPQAMNELVAVVENNTPPTPEEVRDKGWLPNTLLEKIRDLIKEDVARTSAELEGLMNDTAPGEEEF,not soluble
17,KENGKRTEVKIGAKTSVMKEKDGKLFTGKANKETNKVDGANATEDADEGKGLVTAKDVIDAVNKTGWRIKTTDANGQNGDFATVASGTNVTFASGNGTTATVTNGTDGITVKYDAK,soluble
18,MGFFNFIKTVGEKLGIGDSEPTEKDFKTAFDNFQLGTEKVNIQVENGKVVLSGEVPDRETLEKALLVVGNAQGISSVDIGQLKVADTACMKASRFYEVKSGDNLWKIAEEVYGKGQGDKNTFIFEANKPMLKSPDKIYPGQVLRIPEIDRA,not soluble
19,MSIVAKSYEESADPVVAYCAEHTAVQTPLQAELQKETLTNAPHSGMLGAPEVLTFGENFIKFLGAKRVLDVGTFTGASALAWALAVPDDGEVFTFDIDHANYRKFGVPILSKCEKTFKKIKPVEGPGVESLDKLIADGQSGTFDFAFIDADKANYSNYYEKCVSLLRKGGVIFVDNSLWDGAVCDPAKRTDPRTAAIHEMNDKIYQDDRTYSALLNLGDGIHMAFKK,not soluble
20,MNIELRHLRYFVAVAEELHFGRAAARLNISQPPLSQQIQALEQQIGARLLARTNRSVLLTAAGKQFLADSRQILSMVDDAAARAERLHQGEAGELRIGFTSSAPFIRAVSDTLSLFRRDYPDVHLQTREMNTREQIAPLIEGTLDMGLLRNTALPESLEHAVIVHEPLMAMIPHDHPLANNPNVTLAELAKEPFVFFDPHVGTGLYDDILGLMRRYHLTPVITQEVGEAMTIIGLVSAGLGVSILPASFKRVQLNEMRWVPIAEEDAVSEMWLVWPKHHEQSPAARNFRIHLLNALR,not soluble
21,MPRTIWSGAISFGLVTVPIHVVSATEDHSVRFHQYHLEDMGRVRVRKYCELEDREVTQDEIGKGYELSKDTVIPVLDEELRELPLPTAKAIEIEAFVPLASIDPMGIGEGYYLQPDGQVAAKPYKLLRQALERSSKVAVAKYAWSGRERLGMLRVREEAIVLHAMRWPDEIRD,not soluble
22,MGSDAKNLMSDGNVQIVKTGEVIGATQLTEGELIVEAGGRAENTVVTGAGWLKVATGGIAKCTQYGNNGTLSVSDGAIATDIVQSEGGAISLSTLATVNGRHPEGEFSVDKGYACGLLLENGGNLRVLEGHRAEKIILDQEGGLLVNGTTSAVVVDEGGELLVYPGGEASNCEINQGGVFMLAGKASDTLLAGGTMNNLGGEDSDTIVENGSIYRLGTDGLQLYSSGKTQNLSVNVGGRAEVHAGTLENAVIQGGTVILLSPTSADENFVVEEDRAPVELTGSVALLDGASMIIGYGAELQQSTITVQQGGVLILDGSTVKGDSVTFIVGNINLNGGKLWLITDAATHVQLKVKRLRGEGAICLQTSAKEISPDFINVKGEVTGDIHVEITDASRQTLCNALKLQPDEDGIGATLQPA,soluble
